Test results published in doi:10.1101/2020.09.29.317909.

Target: MtMce4A_(39-140) (Mycobacterium tuberculosis)
Assay: SEC-MALS

MtMce4A_(39-140) (domain or fragment) was tested, and the stoichiometry N was 2.
